From US20020058247A1 (TRIPEP, published 2002)

Experiments:
[1] = molecular target: T1, truncated recombinant form of HBeAg containing nine residues of pre-core and the 150 first residues of HBcAg (hepatitis B virus, UniProt P03146 1-150); assay: EIA, support-bound peptide, HBeAg 20 ug/ml
T1 construct: domain: nine residues of pre-core;range 1-150; also called hepatitis B virus e antigen

[2] = molecular target: T2, Full length recombinant HBcAg (rHBcAg) encompassing residues 1-183 (hepatitis B virus, UniProt P03146 1-183); assay: competition EIA, HBcAg coated 5 ug/ml, peptide 50 ug/ml together with mAb 4-2 (competitor); OD of bound mAb
T2 construct: range 1-183; also called hepatitis B virus core antigen
T2 sequence (P03146 whole entry, the tested form may be a part): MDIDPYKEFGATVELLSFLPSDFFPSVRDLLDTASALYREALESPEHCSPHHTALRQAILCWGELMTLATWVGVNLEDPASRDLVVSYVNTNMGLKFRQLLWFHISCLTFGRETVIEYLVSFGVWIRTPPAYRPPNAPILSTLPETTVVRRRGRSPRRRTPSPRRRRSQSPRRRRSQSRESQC

[3] = molecular target: T2, Full length recombinant HBcAg (rHBcAg) …; assay: EIA, support-bound peptide, HBcAg 10 ug/ml
[4] = molecular target: T2, Full length recombinant HBcAg (rHBcAg) …; assay: EIA, peptide coated 12.5 ug/ml, HBcAg 10 ug/ml
[5] = molecular target: T1, truncated recombinant form of HBeAg …; assay: EIA, support-bound peptide, HBeAg 10 ug/ml
[6] = molecular target: T2, Full length recombinant HBcAg (rHBcAg) …; assay: competition EIA, HBcAg coated 1 ug/ml, peptide 50 ug/ml before mAb 4-2 (competitor); OD of bound mAb
[7] = molecular target: T2, Full length recombinant HBcAg (rHBcAg) …; assay: EIA, peptide coated 100 ug/ml, HBcAg 10 ug/ml
[8] = molecular target: T2, Full length recombinant HBcAg (rHBcAg) …; assay: EIA, support-bound peptide, HBcAg 0.2 ug/well
[9] = molecular target: T2, Full length recombinant HBcAg (rHBcAg) …; assay: EIA, peptide coated 3.125 ug/ml, HBcAg 10 ug/ml
[10] = molecular target: T2, Full length recombinant HBcAg (rHBcAg) …; assay: competition EIA, HBcAg coated 5 ug/ml, peptide 25 ug/ml together with mAb 4-2 (competitor); OD of bound mAb
[11] = molecular target: T2, Full length recombinant HBcAg (rHBcAg) …; assay: EIA, support-bound peptide, HBcAg 5 ug/ml
[12] = molecular target: T2, Full length recombinant HBcAg (rHBcAg) …; assay: competition EIA, peptide added to HBcAg before mAb 4-2 (competitor); OD of bound mAb

T1 sequence (P03146 1-150): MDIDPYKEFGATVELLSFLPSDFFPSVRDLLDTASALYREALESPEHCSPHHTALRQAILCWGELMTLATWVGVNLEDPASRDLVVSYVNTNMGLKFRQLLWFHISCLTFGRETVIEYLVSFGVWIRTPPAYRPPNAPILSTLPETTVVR

B1: LAVSLGQRATISCRASQSVS (SEQ. ID. No. 16) (peptide)
peptide: LAVSLGQRATISCRASQSVS
[1]
  OD: 0.393 OD
[2]
  OD at 490 nm: 0.998 OD
[3]
  OD: 0.872 OD
[4]
  OD: 0.24 OD
[5]
  OD: 0.06 OD
[6]
  OD at 490 nm: 0.364 OD
[7]
  OD: 0.9 OD
[8]
  OD at 405 nm: 0.807 OD
[9]
  OD: 0.355 OD
[10]
  OD at 490 nm: 1.03 OD

B2: CKASGYSFTGYNMNWVKQSH (SEQ. ID. No. 29) (peptide)
peptide: CKASGYSFTGYNMNWVKQSH
notes: also called Peptide # 26
[1]
  OD: 0.241 OD
[2]
  OD at 490 nm: 1.25 OD
[3]
  OD: 0.601 OD
[4]
  OD: 0.179 OD
[5]
  OD: 0.091 OD
[6]
  OD at 490 nm: 0.337 OD
[7]
  OD: 0.422 OD
[8]
  OD at 405 nm: 0.356 OD
[9]
  OD: 0.171 OD
[10]
  OD at 490 nm: 1.35 OD

B3: ISCRASQSVSTSSYSYMHWY (SEQ. ID. No. 17) (peptide)
peptide: ISCRASQSVSTSSYSYMHWY
[1]
  OD: 0.687 OD
[2]
  OD at 490 nm: 1.56 OD
[3]
  OD: 1.15 OD
[4]
  OD: 0.514 OD
[5]
  OD: 0.246 OD
[6]
  OD at 490 nm: 0.402 OD
[7]
  OD: 0.641 OD
[8]
  OD at 405 nm: 0.449 OD
[9]
  OD: 0.413 OD
[11]
  OD at 490 nm: 1.94 OD
[10]
  OD at 490 nm: 1.39 OD

B4: VKPGASVKISCKASGYSFTG (SEQ. ID. No. 28) (peptide)
peptide: VKPGASVKISCKASGYSFTG
notes: also called Peptide # 25
[1]
  OD: 0.319 OD
[2]
  OD at 490 nm: 1.22 OD
[3]
  OD: 0.897 OD
[4]
  OD: 0.423 OD
[5]
  OD: 0.096 OD
[6]
  OD at 490 nm: 0.312 OD
[7]
  OD: 1.01 OD
[8]
  OD at 405 nm: 0.845 OD
[9]
  OD: 0.217 OD
[10]
  OD at 490 nm: 1.2 OD

B5: VKPGASVKLSCKASGYIFTS (SEQ. ID. No. 5) (peptide)
peptide: VKPGASVKLSCKASGYIFTS
notes: also called Peptide # 2; Pept. #2
[1]
  OD: 0.751 OD
[12]
  OD at 490 nm: 0.453 OD
[2]
  OD at 490 nm: 0.395 OD
[3]
  OD: 1.69 OD
[4]
  OD: 0.913 OD
[5]
  OD: 0.222 OD
[6]
  OD at 490 nm: 0.188 OD
[7]
  OD: 1.45 OD
[8]
  OD at 405 nm: 1.15 OD
[9]
  OD: 0.333 OD
[11]
  OD at 490 nm: 3.26 OD
[10]
  OD at 490 nm: 0.698 OD
